Experimental data as given in PMC6920703, “Measuring glycolytic flux in single yeast cells with an orthogonal synthetic biosensor” (Molecular Systems Biology, 2019).
Changes are numbered by the printed parent chain. In names and notes the source's numbering stands. Entries after “also recorded” stand apart in the source; their conditions may differ.

How the values were obtained:
[1] = tested on: CggR R250A (Bacillus subtilis); assay: EMSA; settings: 20 mM FBP; 35 nM DNA, 2 or 4 uM CggR, 10 mM Na3PO4 pH 7.8, 100 mM NaCl, 1 mM EDTA, 1 mM DTT, 5% glycerol, 1 ug salmon sperm DNA, 20 min room temperature; 5% native PAGE …
[2] = tested on: CggR wild type (Bacillus subtilis); assay: EMSA; settings: 20 mM FBP; 35 nM DNA, 2 or 4 uM CggR, 10 mM Na3PO4 pH 7.8, 100 mM NaCl, 1 mM EDTA, 1 mM DTT, 5% glycerol, 1 ug salmon sperm DNA, 20 min room temperature; 5% native PAGE …
wild-type CggR = biological target: T1, wild-type CggR (Bacillus subtilis, UniProt O32253); assay: Thermal shift assay of purified CggR with SYPRO Orange and 0-36 mM FBP (20 to 99 °C in 0.5 °C steps, NaCl counter-ion controls), no DNA; KD from fitting Tm data to a simple cooperative binding model in GraphPad.
T1 sequence (O32253 1-340): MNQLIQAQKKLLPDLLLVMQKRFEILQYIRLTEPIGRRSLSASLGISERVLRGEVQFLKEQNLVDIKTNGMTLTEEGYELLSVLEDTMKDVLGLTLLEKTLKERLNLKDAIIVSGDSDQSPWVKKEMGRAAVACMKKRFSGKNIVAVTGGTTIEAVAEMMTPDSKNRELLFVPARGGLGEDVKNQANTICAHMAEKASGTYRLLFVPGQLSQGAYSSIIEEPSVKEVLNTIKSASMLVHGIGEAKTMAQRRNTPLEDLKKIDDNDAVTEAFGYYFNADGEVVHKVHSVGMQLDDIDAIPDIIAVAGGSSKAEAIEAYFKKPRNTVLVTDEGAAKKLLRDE
Description: We generated these CggR mutants with site‐directed mutagenesis, expressed in E. coli, purified, and biochemically characterized them. To this end, we used thermal shift assays to assess protein stability and ligand binding.
Figure 5 Biochemical characterization of CggR and respective mutants • Thermal shift assays were used to determine the melting curves of wild‐type CggR and mutants. Error bars correspond to the standard deviation of at least five replicates. • CggR‐FBP affinity constants (KD's) of the wild type and mutant variants, determined by fitting a simple cooperative binding model to the melting curves data. Error bars indicate the 95% confidence intervals. • Quantification of CggR binding to DNA. The CggR bound to DNA fraction was calculated by dividing the intensity of the protein–DNA complex band by the total DNA. The background‐subtracted total intensities of the CggR–DNA complex and the free‐DNA bands were assessed with ImageJ. Error bars correspond to the standard deviation of three replicate experiments for the mutants and six for the wild type. • Summary of the biochemical characterization of the wild type and mutant CggR variants. […]
(§1) The K D of the wild type and mutant CggR variants was calculated by fitting the T m data into a simple cooperative model using the GraphPad software.

[3] = Thermal shift assay: CggR-FBP affinity constants (KD) from melting curves; type: binding; settings: for KD ratio change (KD of the CggR mutant variant / KD of the wild type) / KD ratio change: desired/undesired sign: Fig 5D; for Obtained effects on affinity for FBP: classification based on thermal shift assays; for KD ratio change: desired/undesired sign: key: +: A plus sign indicates desired characteristics achieved in the mutants; -: a minus sign indicates undesired effects of the mutations
Method: as §1

[4] = tested on: DNA fragments containing the CggR operator sites; assay: Electrophoresis mobility shift assay: CggR binding to DNA; settings: for DNA binding affinity: desired/undesired sign / DNA binding affinity: Fig 5D; for DNA binding affinity: compared with wild type; for CggR binding to DNA in the absence of FBP: 0 mM FBP, Fig 5C; for DNA binding affinity: desired/undesired sign: key: +: A plus sign indicates desired characteristics achieved in the mutants; -: a minus sign indicates undesired effects of the mutations
Method: Fluorescently labeled DNA fragments were generated by hybridization of single‐stranded forward (labeled with Alexa Fluor 647 at the 5′ end) and reverse (unlabeled) oligonucleotides containing the CggR operator sites. The hybridization protocol and respective hybridization efficiency control were performed as described elsewhere (Bley Folly et al, 2018).
Hybridized labeled DNA fragments (final concentration 35 nM) were incubated 20 min at room temperature with 2 or 4 μM of the purified wild type or mutant CggR variants, in the presence of different concentrations of FBP (0; 0.5; 1; 2.5; 5; 10; and 20 mM) in a final volume of 25 μl in binding buffer (10 mM Na3PO4 pH 7.8, 100 mM NaCl, 1 mM EDTA, 1 mM DTT, 5% glycerol) including 1 μg of salmon sperm DNA. The sample mixtures were loaded in a 5% native polyacrylamide gel and run in native conditions in the dark with constant voltage (200V) at 4°C for 2 h.
Fluorescence was imaged using the Typhoon 9400 (Amersham Biosciences, UK) with the excitation set to 650 nm and the emission set to 655 nm. The background‐subtracted total intensities of the protein–DNA complex and the free‐DNA bands were assessed using ImageJ (Abràmoff et al, 2004), and bound DNA/total DNA was calculated by dividing the intensity of the protein–DNA complex band by the total DNA (i.e., the sum of the signal from the protein–DNA complex band plus the one from free DNA).

[5] = Thermal shift assay: protein stability (melting temperature) of CggR variants; settings: for Protein stability: desired/undesired sign / Protein stability: Fig 5D; for Protein stability: compared with wild type
Method: A sample mixture of 25 μl final volume containing 5 μl of 5× SYPRO Orange (Molecular Probes; Eugene, OR), 0.2 mg of the purified CggR, and different concentrations of the FBP metabolite (0; 0.01; 0.1; 0.5; 0.75; 1; 2.5; 10; 20; and 36 mM) was prepared on ice. Control experiments were performed to test the effect of the counter ion NaCl present in FBP salt solutions. Here, the NaCl was added instead of FBP to a final concentration threefold higher than the FBP itself (0; 0.03; 0.3; 1.5; 2.25; 3; 7.5; 30; 60; and 108 mM).
Sample mixtures were transferred into 96‐well PCR plates (Bio‐Rad, CA, USA), sealed with Optical‐Quality Sealing Tape (Bio‐Rad, CA, USA), and analyzed in a CFX96 Real‐Time System combined with C1000 Touch Thermal Cycler (Bio‐Rad, CA, USA). Analysis consisted of a single heating cycle from 20 to 99°C with increments of 0.5°C steps, followed by fluorescence intensity monitoring with a charge‐coupled device camera. The wavelengths for excitation and emission were 490 and 575 nm, respectively. The melting temperature (T m) was automatically calculated by the control software and corresponded to the local maximum of the first derivative of measured fluorescence versus temperature.

[6] = KD for FBP relative to wild type CggR (1 mM)

Molecule CggR operator duplex (CggRO) has a binding signal (% of CggR remaining bound vs 0 mM FBP) [1] of 30 and a binding signal (% of CggR remaining bound vs 0 mM FBP) [2] of 30.

In the case of `O=P(O)(O)OC[C@H]1OC(O)(COP(=O)(O)O)[C@@H](O)[C@@H]1O` (stereo partly shown) [FBP, fructose-1,6-bisphosphate], the Kd (wild-type CggR) is reported as 1000 µM.

B1: T151S: CggR mutant, position 151 Thr to Ser, at the CggR-FBP-binding site (protein, UniProt O32253 1-340, looked up, variant T151S)
Central glycolytic genes …: T1 sequence (O32253 1-340) with T151S
For B1, the “KD ratio change (KD of the CggR mutant variant / KD of the wild type)” value [3] was 0.90, the “KD ratio change: desired/undesired sign” value [3] was “-” and the “fold lower KD than wild type” value [3, 6] was 1.1 fold. For the same molecule, the “Obtained effects on affinity for FBP” value [3] was “mild affinity increase”, the “Obtained effects on DNA binding affinity” value [4] was “No effect” and the “DNA binding affinity: desired/undesired sign” value [4] was “+”. For the same molecule, the DNA binding affinity [4] was “Same range”, the “Obtained effects on stability” value [5] was “No effect” and the “Protein stability: desired/undesired sign” value [5] was “+”. For the same molecule, the Protein stability [5] was “Same range”.

B2: T152S: CggR mutant, position 152 Thr to Ser, at the CggR-FBP-binding site (protein, UniProt O32253 1-340, looked up, variant T152S)
Central glycolytic genes …: T1 sequence (O32253 1-340) with T152S
In the case of B2, the “KD ratio change (KD of the CggR mutant variant / KD of the wild type)” value [3] is reported as 0.62, the “KD ratio change: desired/undesired sign” value [3] is reported as “-” and the “fold lower KD than wild type” value [3, 6] is reported as 1.6 fold. The “Obtained effects on DNA binding affinity” value [4] was “No effect”, the “DNA binding affinity: desired/undesired sign” value [4] was “+” and the DNA binding affinity [4] was “Same range”. For the same molecule, the “Obtained effects on stability” value [5] was “No effect”, the “Protein stability: desired/undesired sign” value [5] was “+” and the Protein stability [5] was “Same range”.

B3: T151V: CggR mutant, position 151 Thr to Val, at the CggR-FBP-binding site (protein, UniProt O32253 1-340, looked up, variant T151V)
Central glycolytic genes …: T1 sequence (O32253 1-340) with T151V
With B3 the “KD ratio change (KD of the CggR mutant variant / KD of the wild type)” value [3] was 2.59, the “KD ratio change: desired/undesired sign” value [3] was “+” and the “fold increase of KD over wild type” value [3, 6] was 2.6 fold. The “Obtained effects on affinity for FBP” value [3] was “strong affinity decrease”, the “Obtained effects on DNA binding affinity” value [4] was “Reduced affinity” and the “CggR binding to DNA in the absence of FBP” value (shortened to “CggR binding to DNA”) [4] was “only bound with lower affinity”. For the same molecule, the “DNA binding affinity: desired/undesired sign” value [4] was “-”, the DNA binding affinity [4] was “Reduced” and the “Obtained effects on stability” value [5] was “Strong decrease”. The Protein stability [5] was “Very low”.

B4: R175K: CggR mutant, position 175 Arg to Lys, at the CggR-FBP-binding site (protein, UniProt O32253 1-340, looked up, variant R175K)
Central glycolytic genes …: T1 sequence (O32253 1-340) with R175K
With B4 the “KD ratio change (KD of the CggR mutant variant / KD of the wild type)” value [3] was 0.98, the “KD ratio change: desired/undesired sign” value [3] was “-” and the “Obtained effects on affinity for FBP” value [3] was “negligible affinity increase”. For the same molecule, the “Obtained effects on DNA binding affinity” value [4] was “Disrupted affinity”, the “CggR binding to DNA” value [4] was “did not bind to the DNA anymore” and the “DNA binding affinity: desired/undesired sign” value [4] was “-”. The DNA binding affinity [4] was “No binding”, the “Obtained effects on stability” value [5] was “No effect” and the “Protein stability: desired/undesired sign” value [5] was “+”. For the same molecule, the Protein stability [5] was “Same range”.

B5: R250A: CggR mutant, position 250 Arg to Ala; selected for the glycolytic flux biosensor (protein, UniProt O32253 1-340, looked up, variant R250A)
Central glycolytic genes …: T1 sequence (O32253 1-340) with R250A
In the case of B5, the “KD ratio change (KD of the CggR mutant variant / KD of the wild type)” value [3] is reported as 1.52, the “KD ratio change: desired/undesired sign” value [3] is reported as “+” and the “Obtained effects on affinity for FBP” value [3] is reported as “desired decrease in FBP affinity; also recorded: strong affinity decrease”. The “Obtained effects on DNA binding affinity” value [4] was “No effect”, the “CggR binding to DNA” value [4] was “similar” and the “CggR remained bound to DNA at high FBP levels” value ([4]; 20 mM FBP relative to bound fraction at 0 mM FBP) was “around 30%”. For the same molecule, the “DNA binding affinity: desired/undesired sign” value [4] was “+”, the DNA binding affinity [4] was “Same range” and the “Obtained effects on stability” value [5] was “No effect”. For the same molecule, the Protein stability [5] was “Same range”.

B6: E269Q: CggR mutant, position 269 Glu to Gln, at the CggR-FBP-binding site (protein, UniProt O32253 1-340, looked up, variant E269Q)
Central glycolytic genes …: T1 sequence (O32253 1-340) with E269Q
In the case of B6, the “KD ratio change (KD of the CggR mutant variant / KD of the wild type)” value [3] is reported as 0.79, the “KD ratio change: desired/undesired sign” value [3] is reported as “-” and the “Obtained effects on affinity for FBP” value [3] is reported as “mild affinity increase”. For the same molecule, the “Obtained effects on DNA binding affinity” value [4] was “Disrupted affinity”, the “CggR binding to DNA” value [4] was “did not bind to the DNA anymore” and the “DNA binding affinity: desired/undesired sign” value [4] was “-”. For the same molecule, the DNA binding affinity [4] was “No binding”, the “Obtained effects on stability” value [5] was “Strong decrease” and the Protein stability [5] was “Very low”.
